Source: article PMC3946673

Target: human lactoferrin from milk (human)
Experiment: SPR; lactoferrin immobilised by amine coupling on Sensor Chip CM3 (around 1000 RU); EndoE variants injected at typically 31-500 nM, 15 µl/min, 25°C, 10 mM Hepes pH 7.5, 150 mM NaCl, 0.005% surfactant P20; BIAcore 2000; 1:1 Langmuir fit, KD from mean values of the rate constants

| Substance | Kd [nM] |
| --- | --- |
| EndoE(E186Q) (from UniProt Q6U890 1-837) (enzyme) | 44 |
| EndoE(E662Q) (from UniProt Q6U890 1-837) (enzyme) | 3.7 |
